The source of these data is paper PMC2661963, “The Active Site of a Carbohydrate Esterase Displays Divergent Catalytic and Noncatalytic Binding Functions” (PLoS Biology, 2009).

The target in data set [1] is T1, CtCE2 (Acetivibrio thermocellus, UniProt P10477, W746A).
T1 construct: gene celE; C-terminal CE2 esterase module only, residues 482-814 of the full-length enzyme, C-terminal His6 tag, pET22b, E. coli BL21
In words: isothermal titration calorimetry. The note with it: 50 mM HEPES-Na, 25 °C; pH 8.0 with 300 mM NaCl (Methods; Figure 5 legend says pH 7.0); binds across esterase active site. The class given is binding. The source says:
(§1) isothermal titration calorimetry on CtCE2
On the technique in general: Isothermal titration calorimetry measures the heat released or taken up as one component is titrated into another.

The target of data set [2] is T2, CtCE2 (Acetivibrio thermocellus, UniProt P10477, H791A).
T2 construct: gene celE; C-terminal CE2 esterase module only, residues 482-814 of the full-length enzyme, C-terminal His6 tag, pET22b, E. coli BL21
T2 sequence (P10477 482-814 H791A): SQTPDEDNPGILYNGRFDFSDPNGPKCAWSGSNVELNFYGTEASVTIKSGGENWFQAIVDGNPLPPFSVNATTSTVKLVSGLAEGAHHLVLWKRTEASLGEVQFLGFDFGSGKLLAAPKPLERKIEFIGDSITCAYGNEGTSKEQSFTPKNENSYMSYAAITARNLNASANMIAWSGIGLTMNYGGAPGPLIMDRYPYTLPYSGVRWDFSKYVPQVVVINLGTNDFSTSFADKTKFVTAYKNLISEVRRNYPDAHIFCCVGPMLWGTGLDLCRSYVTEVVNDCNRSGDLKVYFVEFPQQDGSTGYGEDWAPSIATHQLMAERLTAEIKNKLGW
In words: isothermal titration calorimetry. The note with it: 50 mM HEPES-Na, 25 °C; pH 8.0 with 300 mM NaCl (Methods; Figure 5 legend says pH 7.0); binds across esterase active site. Type of data set: binding.
Text: as §1

For data set [3], the target named is T3, CtCE2 (Acetivibrio thermocellus, UniProt P10477, S612A).
T3 construct: gene celE; C-terminal CE2 esterase module only, residues 482-814 of the full-length enzyme, C-terminal His6 tag, pET22b, E. coli BL21
T3 sequence (P10477 482-814 S612A): as the sequence (P10477 482-814 H791A) above, with S131A, A310H counted along it
Kind of data set: isothermal titration calorimetry. Type of data set: binding. To be noted: 50 mM HEPES-Na, 25 °C; pH 8.0 with 300 mM NaCl (Methods; Figure 5 legend says pH 7.0); binds across esterase active site.
Text: as §1

In data set [4] the target is T4, CtCE2 (Acetivibrio thermocellus, UniProt P10477, Y683A).
T4 construct: gene celE; C-terminal CE2 esterase module only, residues 482-814 of the full-length enzyme, C-terminal His6 tag, pET22b, E. coli BL21
T4 sequence (P10477 482-814 Y683A): as the sequence (P10477 482-814 H791A) above, with Y202A, A310H counted along it
Kind of data set: isothermal titration calorimetry. Type of data set: binding. The note with it: 50 mM HEPES-Na, 25 °C; pH 8.0 with 300 mM NaCl (Methods; Figure 5 legend says pH 7.0); binds across esterase active site.
Text: as §1

In data set [5] the target is T5, CtCE2 (Acetivibrio thermocellus, UniProt P10477).
T5 construct: gene celE; C-terminal CE2 esterase module only, residues 482-814 of the full-length enzyme, C-terminal His6 tag, pET22b, E. coli BL21
T5 sequence (P10477 482-814): as the sequence (P10477 482-814 H791A) above, with A310H counted along it
Kind of data set: isothermal titration calorimetry. Type of data set: binding. To be noted: 50 mM HEPES-Na, 25 °C; pH 8.0 with 300 mM NaCl (Methods; Figure 5 legend says pH 7.0); binds across esterase active site.
Text: as §1

Data set [6] deals with T5, CtCE2. In words: inhibition of 4-nitrophenyl acetate hydrolysis. Type of data set: biochemical. The note with it: substrate 4-nitrophenyl acetate; noncompetitive; 37 °C. The source says: inhibition of 4-nitrophenyl acetate hydrolysis on CtCE2
Substrate in data set [7]: CC(=O)Oc1ccc([N+](=O)[O-])cc1
Kind of data set: purified protein. The class given is biochemical, Acetivibrio thermocellus. To be noted: 50 mM sodium phosphate pH 7.0, 1 mg/ml BSA.

Substrate in data set [8]: CC(=O)Oc1ccc([N+](=O)[O-])cc1
Kind of data set: purified protein. To be noted: 50 mM sodium phosphate pH 7.0, 1 mg/ml BSA. The class given is biochemical, Cellvibrio japonicus.

Numbering of substitutions follows the chain as printed. Names may count otherwise.

T1 sequence (P10477 482-814 W746A): as the sequence (P10477 482-814 H791A) above, with W265A, A310H counted along it

In the case of `OC[C@H]1O[C@@H](O[C@H]2[C@H](O)[C@@H](O)[C@H](O[C@H]3[C@H](O)[C@@H](O)[C@H](O[C@H]4[C@H](O)[C@@H](O)[C@H](O[C@H]5[C@H](O)[C@@H](O)[C@H](O[C@H]6[C@H](O)[C@@H](O)C(O)O[C@@H]6CO)O[C@@H]5CO)O[C@@H]4CO)O[C@@H]3CO)O[C@@H]2CO)[C@H](O)[C@@H](O)[C@@H]1O` (stereo partly shown) [cellohexaose], the dissociation constant Kd (in general, a measure of binding affinity in units of concentration) at CtCE2 [1] was above 1000 µM; at CtCE2 [2], 667 µM; on CtCE2 [3], 4.1 µM; on CtCE2 [4], 37 µM; at CtCE2 [5] it was 33 µM. For the same molecule, at CtCE2 [6], the Ki (commonly the dissociation constant of the complex between target and ligand, obtained from inhibition or displacement) came to 3.1 µM.
The molecule `OC[C@H]1O[C@@H](O[C@H]2[C@H](O)[C@@H](O)[C@H](O[C@H]3[C@H](O)[C@@H](O)[C@H](O[C@H]4[C@H](O)[C@@H](O)C(O)O[C@@H]4CO)O[C@@H]3CO)O[C@@H]2CO)[C@H](O)[C@@H](O)[C@@H]1O` (stereo partly shown) [cellotetraose] displayed a dissociation constant (Kd) at CtCE2 [5] of 333 µM.
On the same count and under the same terms, the result for `OC[C@H]1O[C@@H](O[C@H]2[C@H](O)[C@@H](O)[C@H](O[C@H]3[C@H](O)[C@@H](O)C(O)O[C@@H]3CO)O[C@@H]2CO)[C@H](O)[C@@H](O)[C@@H]1O` (stereo partly shown) [cellotriose] reads above 1000 µM.
On the same count and under the same terms, the result for `OC[C@H]1O[C@@H](O[C@H]2[C@H](O)[C@@H](O)[C@H](O[C@H]3[C@H](O)[C@@H](O)[C@H](O[C@H]4[C@H](O)[C@@H](O)[C@H](O[C@H]5[C@H](O)[C@@H](O)C(O)O[C@@H]5CO)O[C@@H]4CO)O[C@@H]3CO)O[C@@H]2CO)[C@H](O)[C@@H](O)[C@@H]1O` (stereo partly shown) [cellopentaose] reads 71 µM.

B1: CtCE2 (Acetivibrio thermocellus ATCC 27405; D789A) (protein)
chain: SQTPDEDNPGILYNGRFDFSDPNGPKCAWSGSNVELNFYGTEASVTIKSGGENWFQAIVDGNPLPPFSVNATTSTVKLVSGLAEGAHHLVLWKRTEASLGEVQFLGFDFGSGKLLAAPKPLERKIEFIGDSITCAYGNEGTSKEQSFTPKNENSYMSYAAITARNLNASANMIAWSGIGLTMNYGGAPGPLIMDRYPYTLPYSGVRWDFSKYVPQVVVINLGTNDFSTSFADKTKFVTAYKNLISEVRRNYPDAHIFCCVGPMLWGTGLDLCRSYVTEVVNDCNRSGDLKVYFVEFPQQDGSTGYGEAWHPSIATHQLMAERLTAEIKNKLGW
notes: C-terminal CE2 esterase module only, residues 482-814 of the full-length enzyme, C-terminal His6 tag, pET22b, E. coli BL21
As for B1, in the data set “purified protein [7]”, the Km (as a rule, the concentration of substrate that gives half-maximal velocity) turned out to be 75 µM and the kcat is 2,512 min-1.

B2: CtCE2 (Acetivibrio thermocellus ATCC 27405) (protein)
chain: B1 chain with A308D
notes: as for B1
In the case of B2, in “purified protein [7]”, the Michaelis constant (Km) turned out to be 165 µM and the kcat was 7,032 min-1.

B3: CtCE2 (Acetivibrio thermocellus ATCC 27405; D789N) (protein)
chain: B1 chain with A308N
notes: as for B1
Take B3: in the data set “purified protein [7]”, the Km worked out at 186 µM and the kcat was 2,976 min-1.

B4: CjCE2B (Cellvibrio japonicus Ueda107) (protein)
chain: ADSTKPLPLHIGGRVLVESPANQPVSYTYSWPAVYFETAFKGQSLTLKFDDDQNIFRLIVDDKAPVVINKPGKVDYPVESLAPGKHRVRLEKLTETQSTSGRFLGFYTDPSAKPLALPKRKRQIEFIGDSFTVGYGNTSPSRECTDEELFKTTNSQMAFGPLTAKAFDADYQINASSGFGIVRNYNGTSPDKSLLSLYPYTLNNPDQLYHNKHWKPQVIVIGLGTNDFSTALNDNERWKTREALHADYVANYVKFVKQLHSNNARAQFILMNSDQSNGEIAEQVGKVVAQLKGGGLHQVEQIVFKGLDYSGCHWHPSANDDQLLANLLITHLQQKKGIW
notes: mature form (signal peptide removed), C-terminal His6 tag, pET22b, E. coli BL21; model ordered 26-361; Cys-333, Trp-335, Tyr-206
Take B4: in the data set “purified protein [8]”, the Michaelis-Menten constant (Km) came out at 262 µM and the kcat is on record as 49,820 min-1.

B5: CjCE2A (Cellvibrio japonicus Ueda107) (protein)
chain: NTQSLMSSTHTIAASDPHIQVMGRTHINDDASLTFGYPGVSLSTIVAGSRLTAEMQSSNGNSWIDVIIDNHPPTSIKLDAQQQTVELFHFPNSGEHRVEIIHRSENWHGQVTLKQLTLTGTQFLPAPVLPQRKILVLGDSVTCGEAIDRVAGEDKNTRWWNARESYGMLTAKALDAQVQLVCWGGRGLIRSWNGKTDDANLPDFYQFTLGDTGQAPQWDHHRYQPDLIISAIGTNDFSPGIPDRATYINTYTRFVRTLLDNHPQATIVLTEGAILNGDKKAALVSYIGETRQQLHSNRVFYASSSHHPGDNSDAHPTKDQHAAMARELTPQLRQIMDW
notes: mature form (signal peptide removed), C-terminal His6 tag, pET22b, E. coli BL21; catalytic triad Ser-160, His-335, Asp-333; Trp-127, Trp-212
For the molecule B5, in the data set “purified protein [8]”, the Km stood at 339 µM and the kcat was 7,717 min-1.
